For one data set, the target named is T1, murine SUMO-SHMT2 (Mus musculus, UniProt Q9CZN7 1-504).
T1 sequence: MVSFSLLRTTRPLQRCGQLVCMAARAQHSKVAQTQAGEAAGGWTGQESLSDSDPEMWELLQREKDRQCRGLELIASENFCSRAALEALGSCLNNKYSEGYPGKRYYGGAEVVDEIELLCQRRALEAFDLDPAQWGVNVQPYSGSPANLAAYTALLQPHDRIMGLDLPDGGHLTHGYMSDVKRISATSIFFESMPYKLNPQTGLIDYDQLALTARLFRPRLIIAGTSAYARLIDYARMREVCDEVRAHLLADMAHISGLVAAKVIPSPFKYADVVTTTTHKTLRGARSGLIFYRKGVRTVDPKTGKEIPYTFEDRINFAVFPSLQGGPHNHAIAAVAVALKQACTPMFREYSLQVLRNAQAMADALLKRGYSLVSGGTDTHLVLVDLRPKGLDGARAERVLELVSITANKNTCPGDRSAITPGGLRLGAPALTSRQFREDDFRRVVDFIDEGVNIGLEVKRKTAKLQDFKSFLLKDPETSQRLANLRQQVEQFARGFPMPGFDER
Description: EMSA; RNA EMSA (LightShift kit): 10 pmol biotin-RNA, 6 ug protein, 1X EMSA binding buffer, 5% glycerol, 0.1 mg/mL tRNA, 20 uL, 30 min, room temperature; salt and pH not stated. As to conditions: protein: recombinant; tags: SUMO; label: 5' biotin. (In general: Mobility shift assays separate free from complexed probe on a gel.)

The next data set concerns the target T2, human SUMO-SHMT2 (Homo sapiens, UniProt P34897 1-504).
T2 sequence: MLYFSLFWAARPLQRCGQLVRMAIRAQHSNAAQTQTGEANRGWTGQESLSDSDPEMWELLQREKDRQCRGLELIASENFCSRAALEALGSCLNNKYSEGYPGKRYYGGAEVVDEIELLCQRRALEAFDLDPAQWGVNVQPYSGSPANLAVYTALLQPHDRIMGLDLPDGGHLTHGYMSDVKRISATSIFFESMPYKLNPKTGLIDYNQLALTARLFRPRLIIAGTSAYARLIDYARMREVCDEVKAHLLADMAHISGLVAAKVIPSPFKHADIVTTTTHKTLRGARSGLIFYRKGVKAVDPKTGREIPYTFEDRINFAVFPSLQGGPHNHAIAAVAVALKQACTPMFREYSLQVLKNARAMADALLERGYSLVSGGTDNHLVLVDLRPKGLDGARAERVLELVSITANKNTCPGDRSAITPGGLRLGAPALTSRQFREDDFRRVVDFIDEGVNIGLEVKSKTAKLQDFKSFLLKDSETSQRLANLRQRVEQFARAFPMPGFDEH
Described as above. As to conditions: protein: recombinant; tags: SUMO; chain copies: 4; label: 5' biotin.

Experimental findings from paper PMC10953581, “SHMT2 Mediates Small‐Molecule‐Induced Alleviation of Alzheimer Pathology Via the 5′UTR‐dependent ADAM10 Translation Initiation” are described below.

B1: mouse 1-29 (ssRNA)
RNA: GAGGGCAGGGAAGCGGGGAAGGGAGGAAG
For B1, in the data set with murine SUMO-SHMT2, the binding result is on record as “binds”.

B2: 156-175 (ssRNA)
RNA: UGAGUUUCGAAGGAGGGGGG
On to B2, for which the binding result in the data set with human SUMO-SHMT2 was “binds”.

B3: MUT223-244 (ssRNA)
RNA: GGAAACGAACUAUUUGUAUUUA
For B3, the binding result with human SUMO-SHMT2 is recorded as “no binding”.

B4: 69-90 (ssRNA)
RNA: GGACGGGUAGGGGCGGGAGGUA
B4: the binding result in the data set with human SUMO-SHMT2 was “binds”.

B5: 176-200 (ssRNA)
RNA: GAGAGAAGAGGGAACGAGCAAGGGA
B5: the binding result in the data set with human SUMO-SHMT2 was “binds”.

B6: MUT201-222 (ssRNA)
RNA: AGUAAAUCGGGUAAAUGAGGAA
Turning to B6, in the data set with human SUMO-SHMT2, the binding result is “no binding”.

B7: MUT69-90 (ssRNA)
RNA: GGACGGGUAGGGGCUUUAUGUA
As to B7, the binding result with human SUMO-SHMT2 is given as “no binding”.

B8: MUT176-200 (ssRNA)
RNA: GAGAGAAUAUUUAACGAGCAAGGGA
B8: the binding result with human SUMO-SHMT2 is recorded as “no binding”.

B9: MUT156-175 (ssRNA)
RNA: UGAGUUUCGAAGUAUUUGGG
With B9, the binding result with human SUMO-SHMT2 was “no binding”.

B10: mouse 58-86 (ssRNA)
RNA: GUUUUGGCGGAGCAGGGCGCGCGGCUGGG
Take B10: in the data set with murine SUMO-SHMT2, the binding result is recorded as “no binding”.

B11: 201-222 (ssRNA)
RNA: AGGAAAGCGGGGAAAGGAGGAA
As for B11, in the data set with human SUMO-SHMT2, the binding result is given as “binds”.

B12: mouse 30-57 (ssRNA)
RNA: GAAGAGGCCGAGGGGGAGGGAGGGCCCU
On to B12, for which the binding result with murine SUMO-SHMT2 is recorded as “binds”.

B13: 223-244 (ssRNA)
RNA: GGAAACGAACGAGGGGGAGGGA
In the case of B13, the binding result in the data set with human SUMO-SHMT2 is listed as “binds”.
